Source: paper PMC10164577, “CAF-1 deposits newly synthesized histones during DNA replication using distinct mechanisms on the leading and lagging strands” (Nucleic Acids Research, 2022)
Numbering of substitutions follows the chain as printed. Numbers in names are those of the source.

Experiments:
Conditions in all cases: both partners purified
[1] = target: T1, Chromatin Assembly Factor-1 (CAF-1), wild type (yeast, UniProt Q12495 1-606; Q04199 1-468; P13712 1-422); test: SEC; PCNA (30 μM) loaded on nicked pUC19 (0.3 μM) by RFCΔN (0.5 μM) with 10 mM MgCl2 and 3 mM ATP, then CAF-1 (5 μM), 15 min room temperature; Superose 6 increase 3.2/300 in 50 mM HEPES pH 7.5, 200 mM NaCl, 0.01% IGEPAL, 1 mM TCEP, 10 mM MgCl2; fractions on SDS-PAGE
T1 construct: Cac1, large subunit of yeast CAF-1; Cac2, subunit of yeast CAF-1; Cac3, subunit of yeast CAF-1; Heterotrimer Cac1-Cac2-Cac3; also called WT CAF-1; copies: + +

[2] = target: T2, Clamp loader RFC (RFC1-5), full-length (yeast, UniProt P38630 1-861; P40348 1-353; P38629 1-340; P40339 1-323; P38251 1-354); test: cross-linking; limiting PCNA: 50 nM AF546-PCNA K164C loaded on nicked pUC19 (15 nM) by full-length RFC (15 nM), CAF-1 titrated 0-1 μM, 100-110 mM NaCl; 0.2% glutaraldehyde; nuclease digestion; SDS-PAGE, PCNA fluorescence, band intensities; affinities estimated
T2 construct: Rfc1, yeast replication factor C subunit 1; Rfc2, yeast replication factor C subunit 2; Rfc3, yeast replication factor C subunit 3; Rfc4, yeast replication factor C subunit 4; Rfc5, yeast replication factor C subunit 5; also called full-length RFC; copies: + + + +

[3] = target: T1, Chromatin Assembly Factor-1 (CAF-1), …; test: as above
[4] = target: Histones H3–H4 (H3 C110A-H4 E63C), Alexa488-labeled (Xenopus laevis, maleimide AlexaFluor-488 on E63C); test: fluorescence polarisation; 10 nM Alexa488-labeled H3–H4 with increasing CAF-1, Polϵ, Polδ or RPA; 25 mM TRIS pH 7.5, 300 mM NaCl, 5% glycerol, 1 mM EDTA, 0.01% IGEPAL, 0.01% CHAPS, 1 mM DTT; one site binding curve

B1: Proliferating Cell Nuclear Antigen (PCNA), wild type (natural protein, yeast, UniProt P15873 1-258, looked up)
chain: MLEAKFEEASLFKRIIDGFKDCVQLVNFQCKEDGIIAQAVDDSRVLLVSLEIGVEAFQEYRCDHPVTLGMDLTSLSKILRCGNNTDTLTLIADNTPDSIILLFEDTKKDRIAEYSLKLMDIDADFLKIEELQYDSTLSLPSSEFSKIVRDLSQLSDSINIMITKETIKFVADGDIGSGSVIIKPFVDMEHPETSIKLEMDQPVDLTFGAKYLLDIIKGSSLSDRVGIRLSSEAPALFQFDLKSGFLQFFLAPKFNDEE
notes: PCNA, yeast; homotrimeric clamp; In the SEC experiments loaded onto nicked pUC19 by RFCΔN and ATP
B1: binds [1].

B2: PCNA K164C, labeled with Alexa Fluor 546 (natural protein, yeast, UniProt P15873 1-258, looked up)
chain: B1 chain with K164C
modifications: labeled with Alexa Fluor 546
notes: PCNA, yeast, K164C; also called fluorescently labeled PCNA; source: made by standard mutagenesis, purified following the wild-type protocol
With B2 the binding result [2] was “binds” and the Kd [3] was about 100 nM.

B3: DNA polymerase delta (Polδ) (complex)
chain 1: MSEKRSLPMVDVKIDDEDTPQLEKKIKRQSIDHGVGSEPVSTIEIIPSDSFRKYNSQGFKAKDTDLMGTQLESTFEQELSQMEHDMADQEEHDLSSFERKKLPTDFDPSLYDISFQQIDAEQSVLNGIKDENTSTVVRFFGVTSEGHSVLCNVTGFKNYLYVPAPNSSDANDQEQINKFVHYLNETFDHAIDSIEVVSKQSIWGYSGDTKLPFWKIYVTYPHMVNKLRTAFERGHLSFNSWFSNGTTTYDNIAYTLRLMVDCGIVGMSWITLPKGKYSMIEPNNRVSSCQLEVSINYRNLIAHPAEGDWSHTAPLRIMSFDIECAGRIGVFPEPEYDPVIQIANVVSIAGAKKPFIRNVFTLNTCSPITGSMIFSHATEEEMLSNWRNFIIKVDPDVIIGYNTTNFDIPYLLNRAKALKVNDFPYFGRLKTVKQEIKESVFSSKAYGTRETKNVNIDGRLQLDLLQFIQREYKLRSYTLNAVSAHFLGEQKEDVHYSIISDLQNGDSETRRRLAVYCLKDAYLPLRLMEKLMALVNYTEMARVTGVPFSYLLARGQQIKVVSQLFRKCLEIDTVIPNMQSQASDDQYEGATVIEPIRGYYDVPIATLDFNSLYPSIMMAHNLCYTTLCNKATVERLNLKIDEDYVITPNGDYFVTTKRRRGILPIILDELISARKRAKKDLRDEKDPFKRDVLNGRQLALKISANSVYGFTGATVGKLPCLAISSSVTAYGRTMILKTKTAVQEKYCIKNGYKHDAVVVYGDTDSVMVKFGTTDLKEAMDLGTEAAKYVSTLFKHPINLEFEKAYFPYLLINKKRYAGLFWTNPDKFDKLDQKGLASVRRDSCSLVSIVMNKVLKKILIERNVDGALAFVRETINDILHNRVDISKLIISKTLAPNYTNPQPHAVLAERMKRREGVGPNVGDRVDYVIIGGNDKLYNRAEDPLFVLENNIQVDSRYYLTNQLQNPIISIVAPIIGDKQANGMFVVKSIKINTGSQKGGLMSFIKKVEACKSCKGPLRKGEGPLCSNCLARSGELYIKALYDVRDLEEKYSRLWTQCQRCAGNLHSEVLCSNKNCDIFYMRVKVKKELQEKVEQLSKW
chain 2: MDALLTKFNEDRSLQDENLSQPRTRVRIVDDNLYNKSNPFQLCYKKRDYGSQYYHIYQYRLKTFRERVLKECDKRWDAGFTLNGQLVLKKDKVLDIQGNQPCWCVGSIYCEMKYKPNVLDEVINDTYGAPDLTKSYTDKEGGSDEIMLEDESGRVLLVGDFIRSTPFITGVVVGILGMEAEAGTFQVLDICYPTPLPQNPFPAPIATCPTRGKIALVSGLNLNNTSPDRLLRLEILREFLMGRINNKIDDISLIGRLLICGNSVDFDIKSVNKDELMISLTEFSKFLHNILPSISVDIMPGTNDPSDKSLPQQPFHKSLFDKSLESYFNGSNKEILNLVTNPYEFSYNGVDVLAVSGKNINDICKYVIPSNDNGESENKVEEGESNDFKDDIEHRLDLMECTMKWQNIAPTAPDTLWCYPYTDKDPFVLDKWPHVYIVANQPYFGTRVVEIGGKNIKIISVPEFSSTGMIILLDLETLEAETVKIDI
chain 3: MDQKASYFINEKLFTEVKPVLFTDLIHHLKIGPSMAKKLMFDYYKQTTNAKYNCVVICCYKDQTIKIIHDLSNIPQQDSIIDCFIYAFNPMDSFIPYYDIIDQKDCLTIKNSYELKVSESSKIIERTKTLEEKSKPLVRPTARSKTTPEETTGRKSKSKDMGLRSTALLAKMKKDRDDKETSRQNELRKRKEENLQKINKQNPEREAQMKELNNLFVEDDLDTEEVNGGSKPNSPKETDSNDKDKNNDDLEDLLETTAEDSLMDVPKIQQTKPSETEHSKEPKSEEEPSSFIDEDGYIVTKRPATSTPPRKPSPVVKRALSSSKKQETPSSNKRLKKQGTLESFFKRKAK
Binder B3 has a Kd [4] of at least 300 nM.
